Consider five molecules from patent publication US20230151091A1 (NEW YORK UNIVERSITY, published 2023).

Usually Kd stands for the equilibrium constant for the complex coming apart. The term EC50 (read off the curve) denotes the concentration needed to bring the measured effect to its halfway point. A high value points to a need for much substance.

For test [1], the target named is T1, mouse MuSK (mouse, UniProt Q61006 22-494, limits assumed).
T1 construct: Coated on ELISA plates or on the Biacore chip; also called full length mouse MuSK; mouse MuSK (in house produced in HEK293 cells)
T1 sequence (looked up): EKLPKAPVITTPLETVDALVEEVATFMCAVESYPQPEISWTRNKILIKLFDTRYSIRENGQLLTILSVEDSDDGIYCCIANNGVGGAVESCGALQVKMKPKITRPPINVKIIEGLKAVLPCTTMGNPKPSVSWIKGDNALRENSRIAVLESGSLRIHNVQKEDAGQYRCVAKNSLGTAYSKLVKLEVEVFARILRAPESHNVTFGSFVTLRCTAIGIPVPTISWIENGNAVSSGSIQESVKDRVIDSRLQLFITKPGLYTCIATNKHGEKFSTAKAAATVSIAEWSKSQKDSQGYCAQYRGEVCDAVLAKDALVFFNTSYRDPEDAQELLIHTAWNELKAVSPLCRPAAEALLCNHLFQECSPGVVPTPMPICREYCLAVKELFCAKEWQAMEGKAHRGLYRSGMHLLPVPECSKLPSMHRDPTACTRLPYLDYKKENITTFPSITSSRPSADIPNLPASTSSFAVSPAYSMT
Briefly: Biacore, mAb. The text has this: (§1) For affinity determination, a CMS chip was coated with either human or mouse MuSK (200RU) and a dilution series of the antibodies (mAbs and Fabs) was applied in order to be able to calculate the affinity.
On the technique in general: In SPR one partner is held on a chip, and binding of the other changes the refractive index at the surface.

The target of test [2] is T2, mouse MuSK, endogenous (C2C12 myotubes; neuromuscular synapses of mice) (mouse, UniProt Q61006 22-868).
T2 sequence (looked up): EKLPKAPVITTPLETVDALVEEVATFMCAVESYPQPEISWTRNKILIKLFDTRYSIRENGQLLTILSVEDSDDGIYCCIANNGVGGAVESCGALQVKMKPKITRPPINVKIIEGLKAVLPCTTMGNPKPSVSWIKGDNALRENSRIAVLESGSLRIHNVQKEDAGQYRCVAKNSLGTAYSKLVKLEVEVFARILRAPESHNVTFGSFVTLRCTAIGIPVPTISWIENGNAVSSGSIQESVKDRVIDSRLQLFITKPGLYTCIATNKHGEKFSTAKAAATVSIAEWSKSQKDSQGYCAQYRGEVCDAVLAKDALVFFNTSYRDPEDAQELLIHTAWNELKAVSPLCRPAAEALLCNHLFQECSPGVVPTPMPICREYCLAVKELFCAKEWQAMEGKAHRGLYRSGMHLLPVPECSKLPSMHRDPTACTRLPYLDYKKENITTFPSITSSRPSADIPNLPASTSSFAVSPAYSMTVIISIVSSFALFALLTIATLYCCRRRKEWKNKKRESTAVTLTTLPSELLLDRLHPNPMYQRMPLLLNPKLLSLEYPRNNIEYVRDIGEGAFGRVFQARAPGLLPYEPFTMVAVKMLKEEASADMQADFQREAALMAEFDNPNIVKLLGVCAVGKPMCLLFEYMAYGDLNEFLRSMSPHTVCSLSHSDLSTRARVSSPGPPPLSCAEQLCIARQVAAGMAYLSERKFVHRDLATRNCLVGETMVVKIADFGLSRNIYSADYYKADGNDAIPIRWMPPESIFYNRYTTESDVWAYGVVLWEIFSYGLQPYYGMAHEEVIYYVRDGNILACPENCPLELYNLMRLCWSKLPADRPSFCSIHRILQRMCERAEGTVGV
As to the kind of experiment: cell-based or functional assay.

For test [3], the target named is T3, human MuSK (human, UniProt O15146 24-495).
T3 construct: Recombinant protein coated on ELISA plates (R&D Systems cat. 10189-MK) or on the Biacore chip; also called human muscle-specific tyrosine protein kinase; full length human MuSK
T3 sequence: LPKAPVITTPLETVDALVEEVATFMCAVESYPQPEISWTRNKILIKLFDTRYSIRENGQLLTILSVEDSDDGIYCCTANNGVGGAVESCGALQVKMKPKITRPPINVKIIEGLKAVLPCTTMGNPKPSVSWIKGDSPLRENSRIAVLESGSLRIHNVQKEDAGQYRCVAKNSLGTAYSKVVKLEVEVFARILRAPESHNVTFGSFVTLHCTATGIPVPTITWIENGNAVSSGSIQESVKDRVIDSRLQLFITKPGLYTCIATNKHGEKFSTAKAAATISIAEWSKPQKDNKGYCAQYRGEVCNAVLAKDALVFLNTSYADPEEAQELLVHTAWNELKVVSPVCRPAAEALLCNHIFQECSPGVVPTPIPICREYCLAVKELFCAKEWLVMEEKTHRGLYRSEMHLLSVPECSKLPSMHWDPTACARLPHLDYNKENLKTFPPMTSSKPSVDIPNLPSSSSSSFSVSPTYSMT
As to the kind of experiment: Biacore, MuSK on chip (200RU), mAb dilution series.
From the text: as §1

Test [4] deals with T1, mouse MuSK. Briefly: Biacore, MuSK on chip (200RU), mAb dilution series.
From the text: as §1

In test [5] the target is T1, mouse MuSK. As to the kind of experiment: Biacore, Fab.
From the text: as §1

The target of test [6] is T3, human MuSK. As to the kind of experiment: Biacore, MuSK on chip (200RU), Fab dilution series.
From the text: as §1

Test [7] deals with T1, mouse MuSK. Briefly: Biacore, MuSK on chip (200RU), Fab dilution series.
From the text: as §1

In test [8] the target is T3, human MuSK. As to the kind of experiment: ELISA, plate coated with human MuSK at 0.2 µg/ml, dilution series of mAb, goat anti human Fc-HRP and TMB, OD 620 nm (8 min). The protocol: (§2) An ELISA plate was coated with human MuSK (R&D Systems, cat. 10189-MK) or mouse MuSK (in house produced in HEK293 cells) at 0.2 μg/ml. After washing and blocking the plate, a dilution series of the anti-MuSK antibodies was applied and allowed to bind for 2 hours at room temperature. […] OD at 620 nm was measured with a 96 well ELISA plate reader.
A general note: In an ELISA, binding on a coated surface is turned into a signal by an enzyme label.

Test [9] addresses T1, mouse MuSK. As to the kind of experiment: ELISA, plate coated with mouse MuSK at 0.2 µg/ml, dilution series of mAb, goat anti human Fc-HRP and TMB, OD 620 nm (8 min). How it is done: as §2

B1: 30E1 (antibody, V domains shown)
VH: QVQVQESGPGLVKPSQTLSLTCTVSGGSITARYYSWSWIRQPPGKGLEWMGVIAYDGSTYYSPSLKSRTSISRDTSKNQFSLHLSSVTPDDTAVYYCARGSSRVAAAFDSWGQGTQVTVSS
VL: SYELTQSPSVSVALRRTAKITCGGDNIGSKNTQWYQQKPGQAPVLVIYADSRRPSGIPERFSGSNSGNTATLTISGAQAEDEADYYCHVWDSSTNAWFGGGTHLTVL
notes: human IgG1 with the LALA mutations (L234A, L235A); produced in HEK293 cells; also called 30E1 mAb
For B1, in the test with mouse MuSK [1], the “fold difference in affinity, human versus mouse MuSK” value (from here on “fold difference in affinity”) amounted to 10 fold. Besides, in [2], the “% Phosphorylation Induced in C2C12 Mouse Assay, Assay 1” value was determined as 66 % versus agrin; the “% Phosphorylation Induced in C2C12 Mouse Assay, Assay 2” value is 82 % versus agrin; the “% Phosphorylation Induced in C2C12 Mouse Assay, Assay 3” value came to 50 % versus agrin; the “% Phosphorylation Induced in C2C12 Mouse Assay, Average” value is 66 % versus agrin. In the test with human MuSK [3], this molecule had a Kd of 0.011 nM. For the same molecule, the Kd with mouse MuSK [4] stood at 0.153 nM.

B2: 30E1 Fab (Fab, V domains shown)
VH: QVQVQESGPGLVKPSQTLSLTCTVSGGSITARYYSWSWIRQPPGKGLEWMGVIAYDGSTYYSPSLKSRTSISRDTSKNQFSLHLSSVTPDDTAVYYCARGSSRVAAAFDSWGQGTQVTVSS
VL: SYELTQSPSVSVALRRTAKITCGGDNIGSKNTQWYQQKPGQAPVLVIYADSRRPSGIPERFSGSNSGNTATLTISGAQAEDEADYYCHVWDSSTNAWFGGGTHLTVL
notes: Fab format
As to B2, the “fold difference in affinity” value with mouse MuSK [5] was at least 1000 fold. Further, the Kd with human MuSK [6] worked out at 0.07 nM; with mouse MuSK [7] it was 5.39 nM.

B3: 30A11 Fab (Fab, V domains shown)
VH: QVQVQESGPGLVKPSQTLSLTCTVSGGSITARYYSWSWIRQPPGKGLEWMGVIAYDGSTYYSPSLKSRTSISRDTSKNQFSLHLSSVTPDDTAVYYCARGSSRVAAAFDSWGQGTQVTVSS
VL: SYELTQSPSVTVALRQTAKITCGGDNIASKNVQWYQQKPGQAPSLVIWADSRRPSGIPVRFSGSNFGNTATLTISGAQAEDEADYYCQVWDSSTNVAVFGGGTHLTVL
notes: Fab format
Turning to B3, the “fold difference in affinity” value with mouse MuSK [5] was at least 1000 fold. For the same molecule, the Kd with human MuSK [6] was 0.008 nM; with mouse MuSK [7] it was 2.42 nM.

B4: 30A11 (antibody, V domains shown)
VH: QVQVQESGPGLVKPSQTLSLTCTVSGGSITARYYSWSWIRQPPGKGLEWMGVIAYDGSTYYSPSLKSRTSISRDTSKNQFSLHLSSVTPDDTAVYYCARGSSRVAAAFDSWGQGTQVTVSS
VL: SYELTQSPSVTVALRQTAKITCGGDNIASKNVQWYQQKPGQAPSLVIWADSRRPSGIPVRFSGSNFGNTATLTISGAQAEDEADYYCQVWDSSTNVAVFGGGTHLTVL
notes: human IgG1 with the LALA mutations (L234A, L235A); produced in HEK293 cells; also called 30A11 mAb
Consider B4, for which the “fold difference in affinity” value with mouse MuSK [1] was 100 fold. Further, in test [2], the “% Phosphorylation Induced in C2C12 Mouse Assay, Assay 1” value was 73 % versus agrin; the “% Phosphorylation Induced in C2C12 Mouse Assay, Assay 2” value amounted to 89 % versus agrin; the “% Phosphorylation Induced in C2C12 Mouse Assay, Assay 3” value was 74 % versus agrin; the “% Phosphorylation Induced in C2C12 Mouse Assay, Average” value came out at 79 % versus agrin. The molecule also had a Kd with human MuSK [3] of 0.001 nM. Also, the dissociation constant (Kd) with mouse MuSK [4] turned out to be 0.11 nM.

B5: 16F11 (antibody, V domains shown)
VH: EVQLVESGGGLVQPGGSLSLSCVASGFTFSLYYMNWVRQAPGKGLEWLSVIDTHSIAYYADSVKGRFTISRDNVKNTLYLQLNNLKPEDTALYYCVLGRTALVRWGQGTQVTVSS
VL: DIVMTQSPSSVTASVGEKVTINCKSSQSVVFGSNQKSYLNWYQQRPGQSPRLLIYYASTQESGIPDRFSGSGSTTDFTLTISSVQPEDAAVYYCQQAYSAPTFGSGTRLEIK
notes: human IgG1 with the LALA mutations (L234A, L235A); produced in HEK293 cells
For the molecule B5, the half-maximal effective concentration (EC50 (read off the curve)) with human MuSK [8] and in the test with mouse MuSK [9] was about 0.02 µg/mL throughout.
